Assay results published in article PMC6478609.

Target: TRPM8FA with the Ala805→Gly mutation (TRPM8_(FA_AG)) (collared flycatcher Ficedula albicollis) (UniProt U3JD03)
Experiment: cryo-EM structure

stoichiometry N: 4
Substance: TRPM8FA with the Ala805→Gly mutation (TRPM8_(FA_AG)) (from UniProt U3JD03 1-1115) (natural protein)
